Results from patent US20120207673A1.

Key:
protein A [1] = molecular target: protein A (UniProt P38507); experiment: phage ELISA on coated protein A; heat/cool assay, % of untreated sample (n = 2)
protein A [2] = molecular target: protein A (UniProt P38507); experiment: phage ELISA on coated protein A; heat/cool assay, % of untreated sample

Substance | Retained binding to protein A (%) (protein A [1]) | Retained binding to protein A (%) (protein A [2])
DP47 VH T28D + SYA_31-33_DDD | 74.9 | 
DP47 VH T28D + YA_32/33_DD | 76.1 | 
DP47 VH T28D + SYA_31-33_DDD + S35D | 78.6 | 
DP47 VH S35D + YA_32/33_DD |  | 70.4
DP47 VH S35D + SYA_31-33_DDD | 76.7 | 
